Consider 17 sequences from the supplement of paper PMC9170038.

The test system of the data set is MS2 coat protein. As to the kind of experiment: apparent KD of MS2 coat protein; higher = weaker reporter binding. To be noted: Eterna round: R107. The gist of the method: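 For every design, apparent KD is the median of normalised binding-curve fits from its clusters. The RNA switches were transcribed on-chip from Illumina sequencing clusters and titrated with SNAP-549-labelled MS2 coat protein (twofold steps, 0.7 or 1.5 nM to 3 µM; 0.8–1.5 h to 10–20 min per step). Titrations used 100 mM Tris-HCl pH 7.5, 80 mM KCl, 4 mM MgCl2, without or with constant ligand.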

Where [1] appears, read: input ligand: theophylline 20 uM.
[2] abbreviates: input ligand: tryptophan 2.4 mM.
Setting [3] is: input ligand: theophylline 2 mM.

As to “UUUGAUAGGACAGAUACCAGCGUGUUGUUGAACAUGAGGAUCACCCAUGUAGUGAUCAGGCGCCCUUGGCAGCUGGUUUGUUAGG [7.N]”, the “apparent KD of MS2 coat protein” value was determined as 265 nM (input ligand: arginine 13.2 mM), 363 nM under setting [1] and 366 nM under setting [2].
For the sequence “AAAUAGGUAGGAGAUACCAGAUAGGUUAACAUGAGGAUCACCCAUGUGUAUGCACUUAGUGUCCCUUGGCAGCUCCUGGAUCUGG [#19 Same State - Theophylline B]”, the “apparent KD of MS2 coat protein” value is, setting by setting: (input ligand: arginine 13.2 mM) 33.3 nM; (input ligand: none) 47.1 nM; under setting [1], 77.9 nM; under setting [3], 63.2 nM; under setting [2], 60.5 nM.
Turning to “AAGGCUACGACCGAUACCAGUAGACGGCAUUCGUAGGAGAACAUGAGGAUCACCCAUGUCUACCCUUGGCAGCGGAAAAUACACU [theeternabot_exclusion_MS2_Theo_B_16]”, the “apparent KD of MS2 coat protein” value by setting is: (input ligand: arginine 13.2 mM) 11.1 nM; under setting [1], 17.4 nM; under setting [2], 12.3 nM.
Consider “UGUAUGUGAUUUGAUACCAGACCAGCUGGUGUUCCAUGAGGAUCACCCAUGGAGGUUUGGGUCCCUUGGCAGCAAAUCGCAUACU [SS Theo B #24 Ms16]”, for which the “apparent KD of MS2 coat protein” value runs as follows: (input ligand: arginine 13.2 mM) 33.2 nM; (input ligand: none) 25.2 nM; under setting [1], 34 nM; under setting [3], 23.2 nM; under setting [2], 30.3 nM.
As for “GGUUACUCUACGGCCGCCACUGUAAAGUAAAGAUACCUGUACAUGACAUGAGGAUCACCCAUGUACAGGACCGGGUAGUGUAACC [Tryptophan B 16]”, the “apparent KD of MS2 coat protein” value is, setting by setting: (input ligand: arginine 13.2 mM) 133 nM; under setting [1], 636 nM; under setting [3], 804 nM.
As to “AGAAUAUAGUCGGCCGCCACUCUACAUACAUGAGGAUCACCCAUGUUUACAUAGUGAAUAUACAUGAGGACCGGGACAUAGGCAU [JR_SSTryptoB_Sub020]”, the “apparent KD of MS2 coat protein” value reads like this: (input ligand: arginine 13.2 mM) 21.6 nM; under setting [1], 26.1 nM; under setting [3], 23.7 nM.
With “CGAAUACUGAGUGAUACCAGUGAAAGAUAACUGUAUACACAUGAGGAUCACCCAUGUACACACCCUUGGCAGCACACUAGAUCGA [Same State Theophylline B GF 2]”, the “apparent KD of MS2 coat protein” value reads like this: (input ligand: arginine 13.2 mM) 25.8 nM; under setting [1], 40 nM; under setting [2], 29.9 nM.
“AGCAUUGUAACAGAUACCAGACUUUUAAUGCCUCUAAUUACAUGAGGAUCACCCAUGUUUGUCCCUUGGCAGCUGUUAUGAUGCA [JR_ExcTheophyB_Sub009]”: the “apparent KD of MS2 coat protein” value reads like this: (input ligand: arginine 13.2 mM) 84.1 nM; under setting [1], 174 nM; under setting [2], 125 nM.
Taken in the same sequence, the figures for “AGAUCGCUGACCGCGGGAGAUGCGCAGGAUACCAGCCUAAUGUCCGGCCCUUGGCAGCCUGUAACAUGAGGAUCACCCAUGUGAA [theeternabot_exclusion_MS2_Theo_A_29]” were 15 nM, 20.9 nM and 18.1 nM.
With “AGCCAUGGAAACAUGGCGGCGGCAUGAGCGCGAGGACCGGUACGGCCGCCACUCGGGCGACAUGAGGAUCACCCAUGUUCCUCAA [ETA NP+V+V2 #21]”, the “apparent KD of MS2 coat protein” value (input ligand: arginine 13.2 mM) was 27.2 nM; the “apparent KD of MS2 coat protein” value (input ligand: none) is 27.5 nM; the “apparent KD of MS2 coat protein” value under setting [1] stood at 54.1 nM; the “apparent KD of MS2 coat protein” value under setting [3] is 38.2 nM; the “apparent KD of MS2 coat protein” value under setting [2] was found to be 340 nM.
“AUAAAUAAUAAAUAAAAUAAAAUGGGUGAACGAGGACCGGUACGGCCGCCACUCGGACAUGAGGAUCACCCAUGUCCAUGUGAAA [#21 Exclusion Tryptophan A]”: the “apparent KD of MS2 coat protein” value (input ligand: arginine 13.2 mM) turned out to be 15.6 nM, the “apparent KD of MS2 coat protein” value under setting [1] amounted to 20.3 nM and the “apparent KD of MS2 coat protein” value under setting [3] stood at 22.7 nM.
Turning to “CCUAUGCAGUCGGCCGCCACUGAACAUGAGGAUCACCCAUGUAUAUAAAGAUCCUGAUAUAAUAACAGGACCGGGACUGUAUAGG [Ex Tryptophan B 10]”, the “apparent KD of MS2 coat protein” value runs as follows: (input ligand: arginine 13.2 mM) 39.2 nM; under setting [1], 73.4 nM; under setting [3], 58.1 nM.
As for “AAUUCAGGGUCGGCCGCCACUGGUAUGGCGAGUCCUCGAACUUACAUGAGGAUCACCCAUGUGAACAGGACCGGGACAGCAUGGG [Exclusion Tryptophan B GF 22]”, the “apparent KD of MS2 coat protein” value runs as follows: (input ligand: arginine 13.2 mM) 57.8 nM; (input ligand: none) 233 nM; under setting [1], 256 nM; under setting [3], 239 nM; under setting [2], 214 nM.
For the sequence “ACGACAUGAGGAUCACCCAUGUGUACUGAAGGAGCGGCGGAAACGCCAGGUAGGUCGCAGUACACCUCAACCAGCGGUCCUAAGU [EAA NP+V+V2 #2]”, the “apparent KD of MS2 coat protein” value (input ligand: arginine 13.2 mM) came to 27 nM; the “apparent KD of MS2 coat protein” value (input ligand: none) is 64.1 nM; the “apparent KD of MS2 coat protein” value under setting [1] is 78.4 nM; the “apparent KD of MS2 coat protein” value under setting [3] came to 107 nM; the “apparent KD of MS2 coat protein” value under setting [2] turned out to be 64.3 nM.
For “UAUAAAAUAACAGAUACCAGCGUGUUAUAAAACAUGAGGAUCACCCAUGUAGUGAUCAAGCGCCCUUGGCAGCUGGUAUUUUAUA [7.B]”, the “apparent KD of MS2 coat protein” value turned out to be 97.2 nM (input ligand: arginine 13.2 mM), 150 nM under setting [1] and 142 nM under setting [2].
For “ACAUGAGGAUCACCCAUGUAAGUUUCAGAAGGAGCGUGAAUUAUCACAGGUAGGUCGCUGAAGUUUGCAUAUACUUAUAAAUGUA [JR_ExcArginiA_Sub006]”, the “apparent KD of MS2 coat protein” value was 21 nM (input ligand: arginine 13.2 mM); 22.5 nM (input ligand: none); 26.6 nM under setting [1]; 26.5 nM under setting [3]; 19.8 nM under setting [2].
Consider “AAAGAUACCAGAGAUACCAGCCAAAAUUAAAAUAAAACCUCACAUGAGGAUCACCCAUGUGGCCCUUGGCAGCUCCCUUGGCAGC [#DoubbleAptamer 1]”, for which the “apparent KD of MS2 coat protein” value (input ligand: arginine 13.2 mM) turned out to be 13.1 nM, the “apparent KD of MS2 coat protein” value under setting [1] is 15.5 nM and the “apparent KD of MS2 coat protein” value under setting [2] was 12.5 nM.
